Values of other authors, collected in paper PMC9594772.

Target: Dll4 ECD (Rattus norvegicus) (UniProt D3ZHH1)
Sequence (D3ZHH1 28-530): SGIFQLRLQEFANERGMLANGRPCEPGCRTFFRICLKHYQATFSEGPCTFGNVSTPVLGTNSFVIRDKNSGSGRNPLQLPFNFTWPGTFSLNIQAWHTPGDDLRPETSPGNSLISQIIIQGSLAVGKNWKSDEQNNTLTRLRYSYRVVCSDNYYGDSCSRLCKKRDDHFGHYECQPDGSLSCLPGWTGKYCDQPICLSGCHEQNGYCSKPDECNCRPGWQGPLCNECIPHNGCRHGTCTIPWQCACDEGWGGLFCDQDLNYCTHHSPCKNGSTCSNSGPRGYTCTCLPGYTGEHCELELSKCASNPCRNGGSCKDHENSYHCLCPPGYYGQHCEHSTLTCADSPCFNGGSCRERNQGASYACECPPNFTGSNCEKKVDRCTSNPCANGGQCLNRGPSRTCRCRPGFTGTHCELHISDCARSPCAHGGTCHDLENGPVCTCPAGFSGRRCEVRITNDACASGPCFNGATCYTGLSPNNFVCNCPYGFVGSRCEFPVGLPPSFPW

In the case of Notch1 (from UniProt P46531), the Kd is listed as 12.7 µM.
